According to paper PMC7098653:

Columns and labels:
[1] = biological target: LysIME-EF1 CBD (residues 168-237) with an N-terminal 6xHis-tag (E. faecalis phage); experiment: SEC; single purified CBD proteins; Superdex 200, 20 mM Tris-HCl pH 8.0, 150 mM NaCl, 0.5 ml/min, 16°C
[2] = biological target: full-length LysIME-EF1 (wild type), N-terminally 6xHis-tagged (E. faecalis phage); experiment: crystal structure; Se-Met WT LysIME-EF1, space group P12(1)1, 1.75 Å, Se-SAD (PDB 6IST)
[3] = biological target: truncated LysIME-EF1 CBD fragment (8 kDa), product of the internal translation start at M168 (E. faecalis phage); experiment: crystal structure; LysIME-EF1 CBD, space group I422, 1.75 Å, one molecule in the asymmetric unit, tetramer by crystallographic symmetry (PDB 6L00)

Substance	stoichiometry N [1]	stoichiometry N [2]	stoichiometry N [3]
LysIME-EF1 CBD (residues 168-237) with an N-terminal 6xHis-tag (domain or fragment)	4	–	–
truncated LysIME-EF1 CBD fragment (8 kDa), product of the internal translation start at M168 (domain or fragment)	–	3	4
